Reference: patent US20260070975A1

Experiments:
[1] = target: c-Kit expressed on the cell surface of M-07e cells (human) (UniProt P10721)
[2] = target: c-Kit expressed on the cell surface of M-07e cells (human) (UniProt P10721); assay: cell-based or functional assay

c-Kit expressed on the cell surface of M-07e cells (human), sequence (P10721 26-976): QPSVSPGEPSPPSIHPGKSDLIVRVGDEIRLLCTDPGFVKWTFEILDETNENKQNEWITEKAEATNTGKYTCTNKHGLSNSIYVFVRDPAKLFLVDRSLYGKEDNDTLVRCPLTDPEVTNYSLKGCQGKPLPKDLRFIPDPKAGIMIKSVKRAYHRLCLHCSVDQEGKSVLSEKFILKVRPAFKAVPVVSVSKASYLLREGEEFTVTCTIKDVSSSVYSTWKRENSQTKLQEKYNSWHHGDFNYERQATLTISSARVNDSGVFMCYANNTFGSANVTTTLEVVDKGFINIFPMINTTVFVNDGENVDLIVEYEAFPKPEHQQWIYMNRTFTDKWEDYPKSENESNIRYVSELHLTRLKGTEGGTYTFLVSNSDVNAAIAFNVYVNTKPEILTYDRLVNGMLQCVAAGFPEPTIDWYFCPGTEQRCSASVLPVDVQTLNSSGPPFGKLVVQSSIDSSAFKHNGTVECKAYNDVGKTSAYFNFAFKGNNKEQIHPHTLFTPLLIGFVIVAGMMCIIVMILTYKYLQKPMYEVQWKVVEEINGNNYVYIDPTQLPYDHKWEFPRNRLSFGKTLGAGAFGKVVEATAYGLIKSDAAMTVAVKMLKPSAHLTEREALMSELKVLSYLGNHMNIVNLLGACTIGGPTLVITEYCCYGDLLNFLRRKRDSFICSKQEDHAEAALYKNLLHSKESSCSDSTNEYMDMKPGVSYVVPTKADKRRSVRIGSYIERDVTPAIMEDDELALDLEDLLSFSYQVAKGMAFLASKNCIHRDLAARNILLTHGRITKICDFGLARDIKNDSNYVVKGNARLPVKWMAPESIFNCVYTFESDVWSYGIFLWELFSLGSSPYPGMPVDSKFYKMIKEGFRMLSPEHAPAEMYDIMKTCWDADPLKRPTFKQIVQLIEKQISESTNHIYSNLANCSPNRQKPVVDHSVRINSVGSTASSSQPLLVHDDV

B1: CDX-0159 (antibody, INN chains, looked up, V domains shown)
VH: QVQLVQSGAEVKKPGASVKLSCKASGYTFTDYYINWVRQAPGKGLEWIARIYPGSGNTYYNEKFKGRATLTADKSTSTAYMQLSSLRSEDTAVYFCARGVYYFDYWGQGTTVTVSS
VL: DIVMTQSPSSLSASVGDRVTITCKASQNVRTNVAWYQQKPGKAPKALIYSASYRYSGVPDRFTGSGSGTDFTLTISSLQPEDFADYFCQQYNSYPRTFGGGTKVEIK
IC50 (read off the curve) [1]: 0.1 to 0.2 nM
IC50, inhibition of SCF-dependent proliferation of M-07e cells [2]: 0.408 nM
